Assay results as given in article PMC5159797.

Assays:
MBP-Kif2b-CT = assay: GST pull-down, anti-MBP blot quantified; settings: purified MBP-Kif2b deletions; n = 3; parent: 1.0; read off a plot
MBP-Kif2b-NT = assay: GST pull-down, anti-MBP blot quantified; settings: purified MBP-Kif2b deletions; parent: 1.0; read off a plot

| Substance | ratio to parent (MBP-Kif2b-CT) | ratio to parent (MBP-Kif2b-NT) |
| --- | --- | --- |
| GST-SKAP (from UniProt Q9Y448) S232E; S237E; T294E | 0.87 | 15 |
| GST-SKAP (from UniProt Q9Y448) S232A; S237A; T294A | 0.42 | 1.1 |
